Data: paper PMC5490261, “The structural and functional characterization of human RecQ4 reveals insights into its helicase mechanism”

Legend:
Test in all cases: fluorescence polarization; WT-like, low nM apparent Kd; 20 mM HEPES pH 8.0, 10 mM NaCl, 5% glycerol, 1 mM MgCl2, 0.5 mM TCEP, 0.5 nM Cy3-ssDNA; temperature not stated
Settings in all cases: protein: recombinant; tags: Trx-His6 removed by 3C protease; label: 5' Cy3
[1] = target: T1, RecQ4 427-1208 del944-1032 (Homo sapiens, UniProt O94761 427-943+=GG+1032-1208, internal_change)
T1 sequence: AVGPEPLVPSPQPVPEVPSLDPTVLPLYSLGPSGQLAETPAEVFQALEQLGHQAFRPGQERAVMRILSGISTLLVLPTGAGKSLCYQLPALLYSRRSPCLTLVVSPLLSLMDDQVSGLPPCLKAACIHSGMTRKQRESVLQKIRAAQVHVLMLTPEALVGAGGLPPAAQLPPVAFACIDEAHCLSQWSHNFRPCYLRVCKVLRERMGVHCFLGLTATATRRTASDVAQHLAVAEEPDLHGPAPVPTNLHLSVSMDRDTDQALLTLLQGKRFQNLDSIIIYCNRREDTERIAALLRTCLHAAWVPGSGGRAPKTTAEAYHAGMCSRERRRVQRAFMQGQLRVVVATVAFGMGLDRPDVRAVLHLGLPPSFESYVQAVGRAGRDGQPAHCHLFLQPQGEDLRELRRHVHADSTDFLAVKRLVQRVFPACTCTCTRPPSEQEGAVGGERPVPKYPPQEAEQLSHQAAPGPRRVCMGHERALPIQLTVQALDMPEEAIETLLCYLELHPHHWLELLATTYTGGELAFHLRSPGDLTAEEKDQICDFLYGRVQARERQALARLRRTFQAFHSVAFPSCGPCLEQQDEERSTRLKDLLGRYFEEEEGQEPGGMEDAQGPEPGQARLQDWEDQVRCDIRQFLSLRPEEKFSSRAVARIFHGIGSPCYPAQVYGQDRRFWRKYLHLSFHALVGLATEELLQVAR

[2] = target: T2, RecQ4 427-1208 K843A/R844E/R848A (Homo sapiens, UniProt O94761 427-1208, K843A;R844E;R848A)
T2 sequence: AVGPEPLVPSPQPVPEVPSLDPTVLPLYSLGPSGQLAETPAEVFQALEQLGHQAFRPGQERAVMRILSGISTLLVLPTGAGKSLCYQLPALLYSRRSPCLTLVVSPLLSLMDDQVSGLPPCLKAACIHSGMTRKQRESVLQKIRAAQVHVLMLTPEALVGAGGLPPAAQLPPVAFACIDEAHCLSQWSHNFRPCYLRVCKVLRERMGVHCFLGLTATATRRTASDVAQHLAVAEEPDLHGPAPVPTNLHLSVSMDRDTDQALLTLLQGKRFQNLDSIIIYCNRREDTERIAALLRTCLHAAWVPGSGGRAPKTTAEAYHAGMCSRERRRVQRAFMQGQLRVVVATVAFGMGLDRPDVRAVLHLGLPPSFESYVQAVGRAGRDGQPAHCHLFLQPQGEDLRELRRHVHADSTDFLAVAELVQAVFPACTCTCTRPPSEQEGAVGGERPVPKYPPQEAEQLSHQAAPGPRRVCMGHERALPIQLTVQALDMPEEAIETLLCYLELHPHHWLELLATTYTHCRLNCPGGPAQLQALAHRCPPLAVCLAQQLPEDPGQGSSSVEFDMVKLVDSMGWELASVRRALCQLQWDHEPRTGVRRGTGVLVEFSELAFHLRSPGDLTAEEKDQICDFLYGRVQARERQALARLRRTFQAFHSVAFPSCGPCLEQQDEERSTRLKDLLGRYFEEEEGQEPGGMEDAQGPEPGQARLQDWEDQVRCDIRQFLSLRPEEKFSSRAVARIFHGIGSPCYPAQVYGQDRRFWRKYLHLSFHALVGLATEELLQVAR

[3] = target: T3, RecQ4 427-1208 R894A/R895A (Homo sapiens, UniProt O94761 427-1208, R894A;R895A)
T3 sequence: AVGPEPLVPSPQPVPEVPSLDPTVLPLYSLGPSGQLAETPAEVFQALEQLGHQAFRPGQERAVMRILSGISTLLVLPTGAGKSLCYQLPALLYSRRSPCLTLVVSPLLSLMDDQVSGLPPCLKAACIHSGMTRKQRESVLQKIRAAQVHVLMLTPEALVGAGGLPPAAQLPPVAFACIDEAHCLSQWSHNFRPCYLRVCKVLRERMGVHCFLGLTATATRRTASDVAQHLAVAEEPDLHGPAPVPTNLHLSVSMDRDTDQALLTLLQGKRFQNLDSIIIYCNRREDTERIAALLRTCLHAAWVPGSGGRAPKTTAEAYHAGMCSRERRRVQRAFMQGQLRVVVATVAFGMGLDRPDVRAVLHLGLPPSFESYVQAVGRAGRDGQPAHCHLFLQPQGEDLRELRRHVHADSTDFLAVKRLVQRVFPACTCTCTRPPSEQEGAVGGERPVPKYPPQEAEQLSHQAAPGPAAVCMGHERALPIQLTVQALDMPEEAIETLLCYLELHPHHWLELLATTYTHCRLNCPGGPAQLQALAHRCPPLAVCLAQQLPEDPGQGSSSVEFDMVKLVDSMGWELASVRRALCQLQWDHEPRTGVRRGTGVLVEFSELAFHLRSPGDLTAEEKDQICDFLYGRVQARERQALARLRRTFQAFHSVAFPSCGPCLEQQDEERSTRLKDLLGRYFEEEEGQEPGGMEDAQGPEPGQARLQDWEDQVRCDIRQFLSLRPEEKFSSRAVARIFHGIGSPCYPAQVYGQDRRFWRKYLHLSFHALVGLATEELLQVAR

Measured: binding result

CCATTCCACCCTCTATTTTTTTTTTTTTTT (ssDNA) [T3-Cy3]
binds: all assays above
